Here are results for three substances from patent publication US8962697B2, “Bioreponsive polymers” (Interface Biologics Inc., priority 2006, dated 2015).

One experiment has as its target T1, MMP-9 (Homo sapiens, UniProt P14780).
T1 construct: purchased Chemicon, Temecula, Calif
Nature of the experiment: MMP-9 bioresponsive degradation assay. It counts as biochemical. The settings on record: 100 nM MMP-9, 1 mM substrate, room temperature, 3 hr. Here is the method:
The hydrolysis of the substrates were done in MMPs activation buffer. […] 100 nM MPP-9 was added in this activating buffer and incubated at 37° C. for 4 hr. to activate enzyme. After activating, the 1 mM substrates were added to be hydrolysis at room temperature for 3 hr.

Another experiment addresses aureolysin (Staphylococcus aureus, UniProt P81177). To be noted: 100 nM aureolysin, 1 mM substrate, 37° C., 3 hr. Here is the method: The hydrolysis of the substrate was performed in aureolysin activation buffer. The buffer contains 100 mM Tris-HCL, 1 mM CaCL2, pH 7.8, and 1 mM 3,4-dichloroisoumarine. 100 nM aureolysin and 1 mM substrate were added in the buffer, and then incubated at 37° C. for 3 hr.
(§1) All control degradation profiles was conducted as outlined in EXAMPLE 22 through EXAMPLE 26 utilizing the control peptides […] and PRRICV, identified as LAR-7047 and LAR-7048 respectively, as substrates.

In a further experiment the target is V8 proteinase (Staphylococcus aureus, UniProt P0C1U8). The settings on record: 100 nM V8 proteinase, 1 mM substrate, 37° C., 3 hr. The method, then:
The hydrolysis of the substrate was performed in V8 proteinase activation buffer. The buffer contains 100 mM Tris-HCL, 1 mM CaCl2, pH 7.8, and 10 mM o-phenanthroline. 100 nM V8 proteinase and 1 mM substrate were added in the buffer, and then incubated at 37° C. for 3 hr.
as §1

T1 sequence (P14780 107-707 limits assumed): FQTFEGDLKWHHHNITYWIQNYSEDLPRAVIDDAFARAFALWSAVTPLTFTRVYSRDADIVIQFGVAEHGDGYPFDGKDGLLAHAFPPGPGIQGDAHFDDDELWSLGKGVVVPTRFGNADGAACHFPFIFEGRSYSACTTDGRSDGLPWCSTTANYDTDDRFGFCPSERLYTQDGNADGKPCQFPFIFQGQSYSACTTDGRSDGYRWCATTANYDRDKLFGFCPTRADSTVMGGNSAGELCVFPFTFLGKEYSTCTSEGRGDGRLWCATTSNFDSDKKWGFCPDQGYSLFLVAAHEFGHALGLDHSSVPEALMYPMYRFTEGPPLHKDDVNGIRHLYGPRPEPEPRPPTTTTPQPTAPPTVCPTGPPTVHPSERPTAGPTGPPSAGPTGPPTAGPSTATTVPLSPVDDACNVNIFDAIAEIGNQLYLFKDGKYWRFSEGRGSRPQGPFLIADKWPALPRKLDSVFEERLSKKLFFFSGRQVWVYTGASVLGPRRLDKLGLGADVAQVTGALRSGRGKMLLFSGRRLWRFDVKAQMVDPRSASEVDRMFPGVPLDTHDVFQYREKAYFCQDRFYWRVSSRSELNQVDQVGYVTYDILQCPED
V8 proteinase, sequence (P0C1U8 69-336): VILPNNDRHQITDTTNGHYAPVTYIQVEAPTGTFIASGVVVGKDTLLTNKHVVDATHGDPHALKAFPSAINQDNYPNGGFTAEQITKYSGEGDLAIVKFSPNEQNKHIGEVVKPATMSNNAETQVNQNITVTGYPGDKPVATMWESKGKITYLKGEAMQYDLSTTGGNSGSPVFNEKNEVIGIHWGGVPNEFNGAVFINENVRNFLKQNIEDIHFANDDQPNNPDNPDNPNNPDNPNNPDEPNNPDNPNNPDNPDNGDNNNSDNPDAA
aureolysin, sequence (P81177 209-509): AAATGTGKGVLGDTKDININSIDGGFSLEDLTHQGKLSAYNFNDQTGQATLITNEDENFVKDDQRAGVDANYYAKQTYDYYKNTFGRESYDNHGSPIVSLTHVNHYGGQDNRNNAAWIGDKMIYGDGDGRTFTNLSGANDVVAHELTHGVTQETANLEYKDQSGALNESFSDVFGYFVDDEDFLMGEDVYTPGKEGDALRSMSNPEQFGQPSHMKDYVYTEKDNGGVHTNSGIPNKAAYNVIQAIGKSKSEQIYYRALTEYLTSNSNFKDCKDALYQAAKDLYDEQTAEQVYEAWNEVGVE

In the case of “Pro-arg-arg-arg-arg-pro-arg-gln-ile-thr-ala (PRRRRPRQITA) [LAR-7009, peptide targeted to MMP-9 (inflammation)]”, the “Degradation of peptide substrate by MMP-9 (fragment observed)” value (shortened to “Degradation … (fragment observed)”) with MMP-9 is listed as “produced specific fragment pick: 1121.66 corresponding to PRRRRPRQ sequence”.
“Pro-arg-arg-ile-sys-val (PRRICV) [LAR-7048]”: in the experiment with MMP-9, the “Degradation … (fragment observed)” value was “No degradation”. Also, the “Degradation of peptide substrate by aureolysin” value with aureolysin was “No degradation”. The “Degradation of peptide substrate by V8 proteinase” value in the experiment with V8 proteinase is listed as “No degradation”.
Regarding “val-phe-phe-arg-arg-gln-thr-ala (VFFRRQTA) [LAR-7047]”, in the experiment with MMP-9, the “Degradation … (fragment observed)” value was “No degradation”. For the same substance, the “Degradation of peptide substrate by aureolysin” value with aureolysin is “No degradation”. Moreover, the “Degradation of peptide substrate by V8 proteinase” value with V8 proteinase is “No degradation”.
